Test results published in patent US20220411487A1 (Regeneron, published 2022).

T1: full length mouse TMPRSS6 on HEK293 cells (HEK293/mTMPRSS6) (mouse, UniProt Q9DBI0 1-811)
T1 sequence: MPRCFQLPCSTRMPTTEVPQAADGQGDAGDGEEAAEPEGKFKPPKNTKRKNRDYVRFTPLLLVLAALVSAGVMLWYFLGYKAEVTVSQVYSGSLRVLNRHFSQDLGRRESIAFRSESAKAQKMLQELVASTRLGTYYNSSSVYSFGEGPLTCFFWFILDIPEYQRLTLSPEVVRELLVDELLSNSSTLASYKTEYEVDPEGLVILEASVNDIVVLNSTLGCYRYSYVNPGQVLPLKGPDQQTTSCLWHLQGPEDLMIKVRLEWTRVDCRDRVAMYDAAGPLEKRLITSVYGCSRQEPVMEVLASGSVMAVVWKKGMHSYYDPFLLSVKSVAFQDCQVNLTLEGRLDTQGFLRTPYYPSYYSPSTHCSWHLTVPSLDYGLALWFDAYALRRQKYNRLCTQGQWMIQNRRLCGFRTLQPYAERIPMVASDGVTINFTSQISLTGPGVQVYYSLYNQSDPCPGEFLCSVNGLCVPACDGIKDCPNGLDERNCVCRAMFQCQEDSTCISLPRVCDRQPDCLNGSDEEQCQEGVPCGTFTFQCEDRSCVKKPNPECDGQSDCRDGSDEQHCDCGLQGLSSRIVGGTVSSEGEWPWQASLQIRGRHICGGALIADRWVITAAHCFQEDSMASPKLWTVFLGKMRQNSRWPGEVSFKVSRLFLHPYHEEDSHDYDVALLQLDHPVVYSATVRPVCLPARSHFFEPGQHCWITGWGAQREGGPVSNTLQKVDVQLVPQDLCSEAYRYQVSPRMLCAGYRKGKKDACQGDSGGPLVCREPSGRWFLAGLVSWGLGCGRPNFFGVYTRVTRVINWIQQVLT

B1: REGN7969 (antibody, human IgG4 S228P, kappa, V domains shown)
VH: QVQLVESGGGVVQPGRSLRLSCAASGFTFNNYGMHWVRQAPGKGLEWVAIISYDGSNEYYSDSVKGRFTISRDNSKNTLYLQMNSLRAEDTAVYYCARDQDYGGNLFHYWGQGTLVTVSS
VL: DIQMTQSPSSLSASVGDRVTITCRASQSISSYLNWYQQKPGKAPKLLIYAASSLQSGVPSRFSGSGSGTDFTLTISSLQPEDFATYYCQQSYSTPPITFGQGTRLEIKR
notes: fully human; human IgG4 Fc with hinge S108P; also called mAb37746
B2: REGN7974 (antibody, human IgG4 S228P, kappa, V domains shown)
VH: EVQLVESGGGLVQPGRSLRLSCIASGFNFGDYGMSWVRQAPGKGLEWVGFIRSKAYGGTTEYAASVKGRFTISRDDSKSIAYLQMNSLKTEDAAMYYCSRDYYDILTGYYGDYWGQGTLVTVSS
VL: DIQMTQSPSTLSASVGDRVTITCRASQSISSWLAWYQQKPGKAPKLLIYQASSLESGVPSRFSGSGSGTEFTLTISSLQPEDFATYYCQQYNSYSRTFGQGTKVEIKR
notes: fully human; human IgG4 Fc with hinge S108P; also called mAb41422
B3: REGN7977 (antibody, V domains shown)
VH: EVQLVESGGGLVKPGGSLRVSCAASGVTFSNVWMSWVRQVPGKGLEWVGRIKSKTDGGTTDYAAPVKGRFTISKDDSKNTLFLQMNSLKTEDTAVYYCTTETGDFWSGYYPRFQHWGQGTLVTVSS
VL: DIQMTQSPSSLSASVGDRVTITCRASQYISTYLNWYQQKPGKAPSLLIYAASSLQSGVPSRFSGSGSGTDFTLTISSLQPEDFASYSCQQSYSTPPYTFGQGTKLEIKR
notes: fully human; human IgG4 Fc with hinge S108P; also called mAb41465
B4: REGN7999 (antibody, human IgG4 S228P, kappa, V domains shown)
VH: EVQLVESGGGLVQPGGSLRLSCAASGFTFSSYAMTWVRQAPGKGLEWVSAISGSDTSTYYADSVKGRFTISRDNSKNTLFLQMNSLRAEDTAVYYCAKHQDYDFSYYYSAMDVWGQGTTVTVSS
VL: DIQMTQSPSSLSASVGDRVIITCRASQDFNSWLAWYQQKPGKAPKLLIYAASSLQSGVPSRFSGSGSGTDFTLTISSLQPEDFATYYCQQTDSFPFTFGPGTKVDIKR
notes: fully human; human IgG4 Fc with hinge S108P; also called mAb41450
B5: REGN8023 (antibody, human IgG4 S228P, kappa, V domains shown)
VH: EVQLVESGGGLVKPGGSLRISCAASGFIFVDYAMHWVRQAPGKGLEWVSGISWNSGSIGYADSVKGRFTISRDNAKKSLYLQMSGLRPEDTALYYCVKSGFYYVRSYFDNWGQGTLVTVSS
VL: DIVMTQSPLSLPVTPGEPASISCRSSQSLLDSDDGNTYLDWYLRKPGQSPQLLIYTLSYRASGVPDRFSGSGSGTDFTLKISRVEADDVGVYYCMQRIEFPLTFGGGTKVEIKR
notes: fully human; human IgG4 Fc with hinge S108P; also called mAb37699

What follows are binders tested against T2, mTMPRSS6_S762A-MMH (mouse, UniProt Q9DBI0 81-811) (assay: SPR, mAb captured via anti-hFc, 37 C).
T2 construct: also called REGN6848; mouse TMPRSS6 extracellular domain with a S762A mutation and a C-terminal myc-myc-hexahistidine tag
Description: (§1) The equilibrium dissociation constant (KD) for TMPRSS6 binding to different TMPRSS6 monoclonal antibodies (mAbs) was determined using a real-time surface plasmon resonance biosensor using a Biacore 4000 instrument. All binding studies were performed in 10 mM HEPES, 150 mM NaCl, 3 mM EDTA, and 0.05% v/v Surfactant Tween-20, pH 7.4 (HBS-ET) running buffer at 25° C. and 37° C. The Biacore CM5 sensor chip surface was first derivatized by amine coupling with a human Fc specific mouse mAb to capture different TMPRSS6 mAbs. […] Different concentrations (100 nM to 3.7 nM, 3-fold serial dilution) of the TMPRSS6 reagent proteins prepared in HBS-EP running buffer were injected over the TMPRSS6 mAb captured surface for 150 seconds at a flow rate of 30 μL/min and their dissociation in HBS-ET running buffer was monitored for 10 minutes. At the end of each cycle, the TMPRSS6 mAb captured surface was regenerated using a 12 second injection of 20 mM phosphoric acid.
(§2) The association rate (kₐ) and dissociation rate (kd) were determined by fitting the real-time binding sensorgrams to a 1:1 binding model with mass transport limitation using Scrubber 2.0 (BioLogic Software) curve-fitting software. Binding dissociation equilibrium constant (KD) and dissociative half-life (t½) were calculated from the kinetic rates as: […]

T2 sequence (Q9DBI0 other isoform, or with tags, fused parts or gaps S762A S762A): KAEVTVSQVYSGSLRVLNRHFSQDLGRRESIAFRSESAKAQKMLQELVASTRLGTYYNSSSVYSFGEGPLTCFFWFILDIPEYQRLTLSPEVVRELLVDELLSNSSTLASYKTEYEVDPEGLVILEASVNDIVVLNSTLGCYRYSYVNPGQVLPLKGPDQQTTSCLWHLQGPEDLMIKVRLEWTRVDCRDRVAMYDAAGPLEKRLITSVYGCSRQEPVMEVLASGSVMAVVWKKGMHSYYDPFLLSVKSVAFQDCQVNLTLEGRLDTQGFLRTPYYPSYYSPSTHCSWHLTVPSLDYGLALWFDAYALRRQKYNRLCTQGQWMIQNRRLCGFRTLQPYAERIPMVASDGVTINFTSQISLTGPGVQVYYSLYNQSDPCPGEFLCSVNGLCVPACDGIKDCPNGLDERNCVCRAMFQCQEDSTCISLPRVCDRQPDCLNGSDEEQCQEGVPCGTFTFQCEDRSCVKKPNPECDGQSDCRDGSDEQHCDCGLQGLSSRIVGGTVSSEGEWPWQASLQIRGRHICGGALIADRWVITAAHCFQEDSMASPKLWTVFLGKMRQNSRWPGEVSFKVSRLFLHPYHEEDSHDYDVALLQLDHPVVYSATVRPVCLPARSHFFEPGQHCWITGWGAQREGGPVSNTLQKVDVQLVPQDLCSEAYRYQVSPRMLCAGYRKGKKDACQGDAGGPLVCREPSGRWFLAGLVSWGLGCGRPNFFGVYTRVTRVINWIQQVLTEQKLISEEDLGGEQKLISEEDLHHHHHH

Which “100 nM Ag Bound” value does the source give for B1 here?
The value was 2 RU.

For B2, which “100 nM Ag Bound” value is on record?
The value was 3 RU.

Which “100 nM Ag Bound” value does the source give for B3 here?
Its value is 9 RU.

And the Kd?
Its Kd is 703 nM.

And the koff?
The koff was 0.227 s⁻¹.

And the kon?
Its kon is 323000 M⁻¹ s⁻¹.

What about the t½ of the same binder?
The t½ was 0.05 min.

With B4 as the binder, how does the “100 nM Ag Bound” value read?
Its value is 130 RU.

What about the Kd of the same binder?
Its Kd is 0.317 nM.

What about the koff of the same binder?
The koff was 0.00016 s⁻¹.

And the kon?
Its kon is 505000 M⁻¹ s⁻¹.

And the t½?
Its t½ is 72 min.

B5 was tested. Which “100 nM Ag Bound” value did it give?
Its value is 189 RU.

And the Kd?
The Kd was 24.7 nM.

And the koff?
Its koff is 0.00666 s⁻¹.

What about the kon of the same binder?
Its kon is 269000 M⁻¹ s⁻¹.

What about the t½ of the same binder?
Its t½ is 1.7 min.

Each binder was assayed against T2, mTMPRSS6_S762A-MMH (assay: SPR, mAb captured via anti-hFc, 25 C).
Description: as §1, §2

With B1 as the binder, how does the “100 nM Ag Bound” value read?
The value was 4 RU.

Does B1 bind?
Result: no binding (tested: 100 nM)

For B2, which “100 nM Ag Bound” value is on record?
The value was 3 RU.

Does B2 bind?
Result: no binding (tested: 100 nM)

For B3, which “100 nM Ag Bound” value is on record?
Its value is 20 RU.

What about the Kd of the same binder?
The Kd was 233 nM.

And the koff?
Its koff is 0.067 s⁻¹.

What about the kon of the same binder?
Its kon is 288000 M⁻¹ s⁻¹.

What about the t½ of the same binder?
The t½ was 0.17 min.

Which results are given for B4?
100 nM Ag Bound: 178 RU; Kd: 0.0829 nM; koff: 3.45e-05 s⁻¹; kon: 416000 M⁻¹ s⁻¹; t½: 334 min

What does the source list for B5?
100 nM Ag Bound: 209 RU; Kd: 1.84 nM; koff: 0.0011 s⁻¹; kon: 599000 M⁻¹ s⁻¹; t½: 10 min

These binders were tested against T1, full length mouse TMPRSS6 on HEK293 … (assay: cell-based or functional assay).

With B3 as the binder, how does the “% inhibition, HEK293 bioassay, 30 min pre-incubation 25 C” value read?
The value was 58%.

And the “IC50, HEK293 bioassay, 30 min pre-incubation 25 C” value (shortened to “IC50 … 30 min pre-incubation 25 C”)?
The value was 35 nM.

B4 was tested. Which “% inhibition, HEK293 bioassay, 30 min pre-incubation 25 C” value did it give?
The value was 88%.

And the “IC50 … 30 min pre-incubation 25 C” value?
The value was 3.6 nM.

With B5 as the binder, how does the “% inhibition, HEK293 bioassay, 30 min pre-incubation 25 C” value read?
The value was 82%.

What about the “IC50 … 30 min pre-incubation 25 C” value of the same binder?
The value was 1.5 nM.

Biological target: T1, full length mouse TMPRSS6 on HEK293 …
Assay: cell-based or functional assay
Remark: another data set of the same source

For B3, which “% inhibition, HEK293 bioassay, overnight pre-incubation 37 C” value is on record?
The value was 97%.

And the “IC50, HEK293 bioassay, overnight pre-incubation 37 C” value?
Its value is 14 nM.

What does the source list for B4?
% inhibition, HEK293 bioassay, overnight pre-incubation 37 C: 103%; IC50, HEK293 bioassay, overnight pre-incubation 37 C: 2.1 nM

What does the source list for B5?
% inhibition, HEK293 bioassay, overnight pre-incubation 37 C: 98%; IC50, HEK293 bioassay, overnight pre-incubation 37 C: 1.2 nM
